Target: porcine PD-1 (programmed death 1) expressed on HEK293T cells (porcine)
Assay: flow cytometry on cells; HEK293T cells transfected with pcDNA3.1-PD-1 (or empty vector) for 24 h; purified PD-L1-Fc added and incubated for 1 h; percent of positive cells read

Substance: porcine PD-L1-rabbit Fc fusion protein
- percent of cells positive: 38.3%

Reference: article PMC12752125
